The data set “mass photometry” concerns the molecule itself. Briefly: mass photometry.
The data set “crystal structure” concerns the molecule itself. In words: crystal structure.
The target in data set [1] is T1, NG-CDK5RAP2-PReM (CDK5RAP2 residues 535-639) (human, UniProt Q96SN8 535-639).
T1 sequence (looked up): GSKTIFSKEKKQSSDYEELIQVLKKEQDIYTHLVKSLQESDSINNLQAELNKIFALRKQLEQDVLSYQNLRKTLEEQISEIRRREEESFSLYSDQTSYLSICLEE
In words: fluorescence microscopy of networks formed on mixing purified proteins.

Data set [2] concerns the target T2, NG-fusion of PReMΔH1 (Cnn 462-608) (Drosophila melanogaster, UniProt P54623-2 462-608).
T2 sequence (looked up): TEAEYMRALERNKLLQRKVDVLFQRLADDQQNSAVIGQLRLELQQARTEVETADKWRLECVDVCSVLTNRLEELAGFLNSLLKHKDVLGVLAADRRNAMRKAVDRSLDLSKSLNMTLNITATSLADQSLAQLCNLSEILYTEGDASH
The data set is described as above.

The data set “SEC-MALS” concerns the molecule itself. In words: SEC-MALS.
For data set [3], the target named is T3, full length SPD-5-GFP (C. elegans), P91349.
T3 chain: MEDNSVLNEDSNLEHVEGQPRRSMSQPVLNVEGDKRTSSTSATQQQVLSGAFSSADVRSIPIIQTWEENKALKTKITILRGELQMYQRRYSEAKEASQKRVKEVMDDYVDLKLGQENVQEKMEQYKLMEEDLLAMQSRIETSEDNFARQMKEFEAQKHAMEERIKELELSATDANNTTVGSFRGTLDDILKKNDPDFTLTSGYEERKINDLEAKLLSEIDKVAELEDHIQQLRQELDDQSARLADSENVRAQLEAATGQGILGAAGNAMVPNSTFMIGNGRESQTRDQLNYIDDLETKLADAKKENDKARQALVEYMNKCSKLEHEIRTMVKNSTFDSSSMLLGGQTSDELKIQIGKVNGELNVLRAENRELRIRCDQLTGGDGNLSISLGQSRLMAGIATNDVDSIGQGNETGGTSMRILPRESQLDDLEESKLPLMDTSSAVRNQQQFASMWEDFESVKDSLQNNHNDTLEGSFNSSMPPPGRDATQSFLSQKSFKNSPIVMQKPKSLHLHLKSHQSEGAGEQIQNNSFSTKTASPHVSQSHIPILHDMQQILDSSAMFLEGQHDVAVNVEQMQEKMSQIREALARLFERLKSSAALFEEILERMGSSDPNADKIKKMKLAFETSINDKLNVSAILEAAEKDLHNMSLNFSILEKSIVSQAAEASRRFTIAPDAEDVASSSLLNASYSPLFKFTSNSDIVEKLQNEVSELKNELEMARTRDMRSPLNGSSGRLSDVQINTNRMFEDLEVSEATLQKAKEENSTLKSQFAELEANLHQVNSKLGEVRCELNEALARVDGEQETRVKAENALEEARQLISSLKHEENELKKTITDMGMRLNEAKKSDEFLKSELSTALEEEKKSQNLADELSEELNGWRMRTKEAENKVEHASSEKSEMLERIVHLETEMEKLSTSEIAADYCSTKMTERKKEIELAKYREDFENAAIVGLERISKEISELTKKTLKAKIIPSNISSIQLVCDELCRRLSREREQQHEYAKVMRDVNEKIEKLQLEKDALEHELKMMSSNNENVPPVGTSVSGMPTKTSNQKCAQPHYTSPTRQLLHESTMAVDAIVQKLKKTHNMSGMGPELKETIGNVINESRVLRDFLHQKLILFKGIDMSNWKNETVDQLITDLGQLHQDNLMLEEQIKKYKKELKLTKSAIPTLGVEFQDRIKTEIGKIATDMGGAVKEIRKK
In words: mass photometry. Conditions: remark: other sources report otherwise.

B1: full length Cnn-GFP (natural protein, Drosophila melanogaster, UniProt P54623-2 1-1148, looked up)
chain: MDQSKQVLRDYCGDGNGTCASSLKEITLIETVTSFLEENGAAEIDRRVLRKLAEALSKSIDDTSPGALQDVTMENSYASFDVPRPPGGGNSPLPSQGRSVRELEEQMSALRKENFNLKLRIYFLEEGQPGARADSSTESLSKQLIDAKIEIATLRKTVDVKMELLKDAARAISHHEELQRKADIDSQAIIDELQEQIHAYQMAESGGQPVENIAKTRKMLRLESEVQRLEEELVNIEARNVAARNELEFMLAERLESLTACEGKIQELAIKNSELVERLEKETASAESSNANRDLGAQLADKICELQEAQEKLKERERIHEQACRTIQKLMQKLSSQEKEIKKLNQENEQSANKENDCAKTVISPSSSGRSMSDNEASSQEMSTNLRVRYELKINEQEEKIKQLQTEVKKKTANLQNLVNKELWEKNREVERLTKLLANQQKTLPQISEESAGEADLQQSFTEAEYMRALERNKLLQRKVDVLFQRLADDQQNSAVIGQLRLELQQARTEVETADKWRLECVDVCSVLTNRLEELAGFLNSLLKHKDVLGVLAADRRNAMRKAVDRSLDLSKSLNMTLNITATSLADQSLAQLCNLSEILYTEGDASHKTFNSHEELHAATSMAPTVENLKAENKALKKELEKRRSSEGQRKERRSLPLPSQQFDNQSESEAWSEPDRKVSLARIGLDETSNSLAAPEQAISESESEGRTCATRQDRNRNSERIAQLEEQIAQKDERMLNVQCQMVELDNRYKQEQLRCLDITQQLEQLRAINEALTADLHAIGSHEEERMVELQRQLELKNQQIDQLKLAHSTLTADSQITEMELQALQQQMQEIEQLHADSVETLQSQLQKLKLDAVQQLEEHERLHREALERDWVALTTYQEQAQQLLELQRSLDYHQENEKELKQTLVENELATRALKKQLDESTLQASKAVMERTKAYNDKLQLEKRSEELRLQLEALKEEHQKLLQKRSNSSDVSQSGYTSEEVAVPMGPPSGQATTCKQAAAAVLGQRVNTSSPDLGIESDAGRISSVEVSNAQRAMLKTVEMKTEGSASPKAKSEESTSPDSKSNVATGAATVHDCAKVDLENAELRRKLIRTKRAFEDTYEKLRMANKAKAQVEKDIKNQILKTHNVLRNVRSNMENEL
Regarding B1, the stoichiometry N – broadly, the number of molecules, sites or subunits per partner or assembly – in the data set “mass photometry” is 2.

B2: Cnn 490-579 2A mutant (domain or fragment, Drosophila melanogaster, UniProt P54623-2 490-579, looked up)
chain: DQQNSAVIGQLRLELQQARTEVETADKWRLECVDVCSVLTNRLEELAGFLNSLLKHKDVLGVLAADRRNAMRKAVDRALDLAKSLNMTLN
On to B2, for which the binding result in the data set “crystal structure” was “binds”.

B3: human CDK5RAP2 CM2 (residues 1812-1893) (domain or fragment, UniProt Q96SN8 1812-1893, looked up)
chain: PLHCEQIGEMKAEVTKLHKKLFEQEKKLQNTMKLLQLSKRQEKVIFDQLVVTHKILRKARGNLELRPGGAHPGTCSPSRPGS
Take B3: the binding result in data set [1] and in data set [2] was “binds” throughout.

B4: MBP-fusion of PReM domain construct Cnn 462-608 (domain or fragment, Drosophila melanogaster, UniProt P54623-2 462-608, looked up)
chain: T2 sequence (looked up)
As for B4, the “stoichiometry N” value in the data set “SEC-MALS” was found to be 2.

B5: full length SPD-5-GFP, P91349 1-1198 (natural protein)
chain: T3 chain
As for B5, the stoichiometry N in data set [3] amounted to 2.

B6: MBP-fusion of PReM domain construct Cnn 490-608 (domain or fragment, Drosophila melanogaster, UniProt P54623-2 490-608, looked up)
chain: DQQNSAVIGQLRLELQQARTEVETADKWRLECVDVCSVLTNRLEELAGFLNSLLKHKDVLGVLAADRRNAMRKAVDRSLDLSKSLNMTLNITATSLADQSLAQLCNLSEILYTEGDASH
For the molecule B6, the “stoichiometry N” value in “SEC-MALS” is 2.

(Values after publication doi:10.1101/2025.10.03.680336 (bioRxiv, 2025).)
